These results are taken from paper PMC6773690, “Scribble co-operatively binds multiple α1D-adrenergic receptor C-terminal PDZ ligands” (Scientific Reports, 2019).

Ends that are not written are not given here. BG‑782 = not defined here

By Kd is commonly meant the concentration at which binding is half-saturated.

Assay [1] has as its target biotin-labeled peptide containing the last 20 amino acids of the α1D-adrenergic receptor C-terminus (human) (UniProt P25100). As to the kind of experiment: BLI; Octet Red 96; 50 nM biotin-labeled α1D-CT peptide immobilised on streptavidin probes, then biocytin; serial dilutions of purified PDZ proteins as analytes until steady state; 20 mM Tris-HCl pH 8.0, 200 mM NaCl, 0.1% bovine serum albumin. (Biolayer interferometry detects binding as a change in optical thickness at a sensor tip.)

Assay [2] addresses GST-SCRIB containing all 4 PDZ domains (WT). As to the kind of experiment: BLI; reverse BLI: GST-SCRIB immobilised on anti-GST probes, serial dilutions of biotin-labeled α1D-CT as analyte; 20 mM Tris-HCl pH 8.0, 200 mM NaCl, 0.1% bovine serum albumin.
The target of a further assay is GST-SCRIB PDZ domain 4 (UniProt Q14160 992-1203). The experiment in a line: BLI; Octet Red 96; 50 nM biotin-labeled α1D-CT peptide immobilised on streptavidin probes, then biocytin; serial dilutions of purified PDZ proteins as analytes until steady state; 20 mM Tris-HCl pH 8.0, 200 mM NaCl, 0.1% bovine serum albumin. As to conditions: both partners purified.
Assay [3] addresses T1, α1-syntrophin (SNTA) PDZ domain (UniProt Q13424 87-170).
T1 construct: α1-syntrophin (SNTA), PDZ domain; The methods elute GST proteins with glutathione; TEV cleavage is told only for crystallography; source: E. coli Rosetta (DE3), purified (glutathione agarose)
T1 sequence (looked up): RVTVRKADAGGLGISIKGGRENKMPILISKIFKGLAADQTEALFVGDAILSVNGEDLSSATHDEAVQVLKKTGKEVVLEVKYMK
Described as above. As to conditions: both partners purified.

Assay [4] addresses T2, calcium/calmodulin-dependent serine protein kinase (CASK) PDZ domain (UniProt O14936 489-564).
T2 construct: calcium/calmodulin-dependent serine protein kinase (CASK), PDZ domain; The methods elute GST proteins with glutathione; TEV cleavage is told only for crystallography; source: E. coli Rosetta (DE3), purified (glutathione agarose)
T2 sequence (looked up): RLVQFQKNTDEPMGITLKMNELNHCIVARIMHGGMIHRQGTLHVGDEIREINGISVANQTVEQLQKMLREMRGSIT
The assay is described as above. The conditions noted are these: both partners purified.

In another assay the target is T3, GST-SCRIB PDZ domain 1 (UniProt Q14160 728-815).
T3 construct: scribble (SCRIB), PDZ domain 1 alone; also called SCRIB PDZ1; PDZ1; source: E. coli Rosetta (DE3), purified (glutathione agarose); not shown: GST, N-terminal, kept
T3 sequence (Q14160 728-815): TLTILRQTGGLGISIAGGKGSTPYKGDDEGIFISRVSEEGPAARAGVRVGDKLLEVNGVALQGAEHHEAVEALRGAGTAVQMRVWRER
The assay is described as above. The conditions noted are these: both partners purified.

The target of the next assay is T4, GST-SCRIB PDZ domain 2 (UniProt Q14160 862-950).
T4 construct: scribble (SCRIB), PDZ domain 2 alone; also called SCRIB PDZ2; PDZ2; source: E. coli Rosetta (DE3), purified (glutathione agarose); not shown: GST, N-terminal, kept
T4 sequence (looked up): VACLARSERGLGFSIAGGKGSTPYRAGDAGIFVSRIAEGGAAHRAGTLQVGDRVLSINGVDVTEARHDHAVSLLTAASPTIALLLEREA
Described as above. As to conditions: both partners purified.

Another assay addresses T5, GST-SCRIB PDZ domain 3 (UniProt Q14160 1004-1093).
T5 construct: scribble (SCRIB), PDZ domain 3 alone; also called SCRIB PDZ3; PDZ3; source: E. coli Rosetta (DE3), purified (glutathione agarose); not shown: GST, N-terminal, kept
T5 sequence (looked up): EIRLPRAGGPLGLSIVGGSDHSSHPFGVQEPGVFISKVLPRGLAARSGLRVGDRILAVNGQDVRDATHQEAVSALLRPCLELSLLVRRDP
Described as above. The conditions noted are these: both partners purified.

Assay [5] deals with GST-SCRIB ΔPDZ34 (C-terminal truncation mutant missing PDZ3 and PDZ4). The experiment in a line: pull-down; SNAP GST-pulldown: 1 μM GST-tagged SCRIB proteins on glutathione agarose beads with serial dilutions of BG-782-labeled SNAP-α1D-CT, 1 h at 4 °C; washes 20 mM Tris-HCl pH 8.0, 200 mM NaCl, 0.05% NP-40; PAGE NIR.
Assay [6] concerns the target GST-SCRIB ΔPDZ4 (C-terminal truncation mutant missing PDZ4). The description is as above.

Molecule “GST-SCRIB H1170A (PDZ4 mutation in SCRIB with all 4 PDZ domains) (domain or fragment)” had a Kd in assay [1] of 320 nM.

In [1], “GST-SCRIB containing all 4 PDZ domains (WT) (domain or fragment)” had a Kd of 70 nM.

As for “GST-SCRIB ΔPDZ4 (C-terminal truncation mutant missing PDZ4) (domain or fragment)”, the Kd in [1] worked out at 140 nM.

In the case of “GST-SCRIB H793A (PDZ1 mutation in SCRIB with all 4 PDZ domains) (domain or fragment)”, in assay [1], the Kd worked out at 7340 nM.

As for “SCRIB PDZ3 and PDZ4 (PDZ34) (domain or fragment)”, in assay [1], the Kd worked out at 340 nM.

In turn, “GST-SCRIB ΔPDZ34 (C-terminal truncation mutant missing PDZ3 and PDZ4) (domain or fragment)” gave a Kd in assay [1] of 160 nM.

“human discs large MAGUK scaffold protein 1 (DLG1) PDZ domains (domain or fragment)”: the dissociation constant Kd in [1] turned out to be 790 nM.

B1: biotin-labeled peptide containing the last 20 amino acids of the α1D-adrenergic receptor C-terminus (peptide, UniProt P25100 553-572, looked up)
peptide: GATCQAYELADYSNLRETDI
modifications: also: biotin label (position not given here)
notes: α1D-adrenergic receptor, distal (last) 20 amino acids of the C-terminus; also called α1D-CT; α1D-AR C-terminal PDZ ligand; source: synthetic peptide, bought: BioMatik
Regarding B1, the Kd was found to be 76 nM in assay [2]; 1140 nM in the assay with GST-SCRIB PDZ domain 4; 560 nM in assay [3]; 1150 nM in assay [4]; 1930 nM with GST-SCRIB PDZ domain 1; 14900 nM with GST-SCRIB PDZ domain 2. For the same molecule, in the assay with GST-SCRIB PDZ domain 3, the Kd worked out at 44200 nM.

B2: SNAP-α1D-C terminal domain (SNAP-epitope tag adjacent to the N-terminus of the distal 16 amino acids of the α1D-CT) (peptide)
chain: {BG‑782-SNAP tag}-QAYELADYSNLRETDI
modifications: not fully specified; reading uncertain
On to B2, for which the maximal binding response, % of SCRIB WT (% of SCRIB WT) in assay [5] worked out at 34; in [6] it was 48.
